These results are taken from PMC4114559, “Pigment Dispersing Factor Regulates Ecdysone Biosynthesis via Bombyx Neuropeptide G Protein Coupled Receptor-B2 in the Prothoracic Glands of Bombyx mori” (PLoS ONE, 2014).

For one assay, the system named is PGs of B. mori. Put plainly: Intracellular cAMP level in cultured PGs. It is filed as cell-based, Bombyx mori. As to conditions: Ca2+-free lepidopteran saline, n = 4–8. How it is done: Dissected PGs were rinsed with Grace's insect culture medium (Gibco) and pre-cultured individually in 100 µl medium in 96-well plates (BD Falcon) at 25°C for 30 min. To evaluate the effect of extracellular Ca^2+ on ecdysone biosynthesis, lepidopteran saline and lepidopteran saline using NaCl as a replacement for CaCl2 were used. For the pharmacological analysis, the PG was pre-treated with the inhibitor for 15 min during the pre-culture period. Following this treatment, the PG was cultured in the desired conditions for the desired period (Ecdysone assay: 3 hours; cAMP assay: 30 min; and Protein phosphorylation assay: 15 min). Actinomycin D, H-89 and cycloheximide (CHX) were purchased from Sigma; Rapamycin was purchased from Santa Cruz Biotechnology; and LY294002 was purchased from Merck. H-89 was dissolved in water. The other inhibitors were dissolved in DMSO. […]
HEK293 cells were transfected with an empty mammalian expression vector (pME18S) or the full-length BNGR-B2 ORF inserted into the pME18S vector (BNGR-B2/pME18S) using Lipofectamine LTX with PLUS reagent (Invitrogen) according to the manufacturer's instructions. […] The luminescence was measured with a Wallac ARVO SX 1420 Multilabel Counter (PerkinElmer).
Figure 3 Prothoracicotropic activities of PDF in vitro. […] Statistically significant differences were evaluated by Student's t-test (***P<0.001, **P<0.01, *P<0.05).
(cAMP levels reflect the balance of adenylyl cyclase and phosphodiesterase activity.)

The test system of the next assay is PGs. As to conditions: cited from earlier work. An excerpt: In many cases, a single hormone has multiple functions regulating many physiological phenomena. Thus, both the regulation of receptor expression in the target tissue and the regulation of hormone release are important for the hormone to only affect the target tissue at the appropriate time. In the case of PTTH, the titer of the hormone in the hemolymph is clearly correlated with the ecdysteroid titer ... || In insects, neuropeptide hormones affect the target tissue via humoral and neuronal pathways. […] The increase in intracellular cAMP is thought to be regulated by Ca^2+ signaling in the PTTH signaling pathway, [37]. […] PDF sig ... || (+ 1 further places)

Assay [1] concerns nvd, nm-g, spo, phm, dib and sad. As to conditions: ref [8]; cited from earlier work. The source says:
Ecdysone is the key regulator of insect growth and development. Ecdysone is synthesized in the PGs and the biosynthesis is intricately regulated by several neuropeptides. To date, four prothoracicotropic peptides (PTTH, FXPRL-amides, insulin and orcokinins) and three prothoracicostatic peptides (PTSP, Bommo-myosuppressin and Bommo-FMRF-amides) have been identified in Bombyx mori. The participation of four cytochrome P450 (CYP) enzymes (CYP307A1, Spook (Spo); CYP306A1, Phantom (Phm); CYP302A1, Disembodied (Dib); CYP315A1, Shadow (Sad)); an oxygenase-like protein, Neverland (Nvd); and a sh ... || Because PDF increased the intracellular cAMP level in PGs, the involvement of PKA in the PDF signaling pathway was expected. […] In mammals, most of the CYP enzymes involved in steroid hormone biosynthesis are transcriptionally regulated. In PTTH- and dbcAMP-induced ecdysone biosynthesis, ecdysone biosynthesi ...

B1: PTTH: prothoracicotropic hormone, humoral pathway-mediated tropic hormone (protein, UniProt P17219 116-224, looked up)
Prothoracicotropic hormone: GNIQVENQAIPDPPCTCKYKKEIEDLGENSVPRFIETRNCNKTQQPTCRPPYICKESLYSITILKRRETKSQESLEIPNELKYRWVAESHPVSVACLCTRDYQLRYNNN
modifications: Prothoracicotropic hormone
As to B1, the “effect of Ca2+ depletion on induced upregulation of intracellular cAMP levels” value with PGs of B. mori is listed as “suppressed PTTH-induced upregulation of intracellular cAMP levels”. In the assay on PGs (PGs of V4, ref [8]), the “response of V4 PGs, ecdysone synthesis in vitro (literature)” value is “capable of responding to PTTH stimulus and synthesize ecdysone in vitro”. For the same molecule, the “ecdysone biosynthesis when extracellular Ca2+ is depleted (literature)” value in the assay on PGs (extracellular Ca2+ depleted, ref [27], [37]) is recorded as “cannot stimulate ecdysone biosynthesis when extracellular Ca^2+ is depleted”. The “effect of a transcription inhibitor on PTTH- and dbcAMP-induced ecdysone biosynthesis (literature)” value in the assay with PGs (ref [39]) is on record as “ecdysone biosynthesis was suppressed by a transcription inhibitor”. Moreover, in assay [1], the “transcript level of ecdysone biosynthetic enzymes (literature)” value was “upregulated the transcript level of some ecdysone biosynthetic enzymes”; the “transcript levels of spo, dib and phm (literature)” value is recorded as “upregulated by PTTH”.
